Assay results from patent US20210163535A1 (KYUNGPOOK NATIONAL UNIVERSITY INDUSTRY ACADEMIC COOPERATION …, published 2021).
No end group written: not given here.

B1: v6Pep-2 (peptide)
peptide: CNEWQLKSC
modifications: cysteine pairing not given here; also: FITC-labelled or biotinylated, site of label not given here
notes: Selected from a CX7C phage display library; also called clone-2; FITC-v6Pep-2
B2: v6Pep-1 (peptide)
peptide: CNLNTIDTC
modifications: cysteine pairing not given here; also: FITC-labelled or biotinylated, site of label not given here
notes: Selected from a CX7C phage display library; also called clone-1; FITC-v6Pep-1

Target: T1, wild-type CD44 (UniProt P16070-12 21-361, limits assumed)
T1 construct: The isoform is not defined beyond 'wild-type'
T1 sequence (P16070 other isoform, or with tags, fused parts or gaps limits assumed): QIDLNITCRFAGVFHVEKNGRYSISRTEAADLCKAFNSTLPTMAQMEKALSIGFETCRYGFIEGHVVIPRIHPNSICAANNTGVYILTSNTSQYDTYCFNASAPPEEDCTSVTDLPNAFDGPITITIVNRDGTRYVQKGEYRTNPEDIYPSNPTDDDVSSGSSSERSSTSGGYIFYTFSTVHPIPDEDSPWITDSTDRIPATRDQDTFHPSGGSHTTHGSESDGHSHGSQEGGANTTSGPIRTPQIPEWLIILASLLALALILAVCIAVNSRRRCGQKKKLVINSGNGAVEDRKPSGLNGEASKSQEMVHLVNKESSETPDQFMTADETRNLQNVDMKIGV
Test: pull-down of cell lysate with biotinylated peptide on avidin beads, Western blot

| Binder | binding result |
| --- | --- |
| B1 | no binding |
| B2 | no binding |
